# Results published in patent US20150098945A1 (Daiichi Sankyo, published 2015).
# Numbering of substitutions follows the chain as printed.
# T1: human ROBO3 (pCI-hROBO3-transfected HEK293 cells) (human, UniProt Q96MS0 21-1386)
# T1 sequence: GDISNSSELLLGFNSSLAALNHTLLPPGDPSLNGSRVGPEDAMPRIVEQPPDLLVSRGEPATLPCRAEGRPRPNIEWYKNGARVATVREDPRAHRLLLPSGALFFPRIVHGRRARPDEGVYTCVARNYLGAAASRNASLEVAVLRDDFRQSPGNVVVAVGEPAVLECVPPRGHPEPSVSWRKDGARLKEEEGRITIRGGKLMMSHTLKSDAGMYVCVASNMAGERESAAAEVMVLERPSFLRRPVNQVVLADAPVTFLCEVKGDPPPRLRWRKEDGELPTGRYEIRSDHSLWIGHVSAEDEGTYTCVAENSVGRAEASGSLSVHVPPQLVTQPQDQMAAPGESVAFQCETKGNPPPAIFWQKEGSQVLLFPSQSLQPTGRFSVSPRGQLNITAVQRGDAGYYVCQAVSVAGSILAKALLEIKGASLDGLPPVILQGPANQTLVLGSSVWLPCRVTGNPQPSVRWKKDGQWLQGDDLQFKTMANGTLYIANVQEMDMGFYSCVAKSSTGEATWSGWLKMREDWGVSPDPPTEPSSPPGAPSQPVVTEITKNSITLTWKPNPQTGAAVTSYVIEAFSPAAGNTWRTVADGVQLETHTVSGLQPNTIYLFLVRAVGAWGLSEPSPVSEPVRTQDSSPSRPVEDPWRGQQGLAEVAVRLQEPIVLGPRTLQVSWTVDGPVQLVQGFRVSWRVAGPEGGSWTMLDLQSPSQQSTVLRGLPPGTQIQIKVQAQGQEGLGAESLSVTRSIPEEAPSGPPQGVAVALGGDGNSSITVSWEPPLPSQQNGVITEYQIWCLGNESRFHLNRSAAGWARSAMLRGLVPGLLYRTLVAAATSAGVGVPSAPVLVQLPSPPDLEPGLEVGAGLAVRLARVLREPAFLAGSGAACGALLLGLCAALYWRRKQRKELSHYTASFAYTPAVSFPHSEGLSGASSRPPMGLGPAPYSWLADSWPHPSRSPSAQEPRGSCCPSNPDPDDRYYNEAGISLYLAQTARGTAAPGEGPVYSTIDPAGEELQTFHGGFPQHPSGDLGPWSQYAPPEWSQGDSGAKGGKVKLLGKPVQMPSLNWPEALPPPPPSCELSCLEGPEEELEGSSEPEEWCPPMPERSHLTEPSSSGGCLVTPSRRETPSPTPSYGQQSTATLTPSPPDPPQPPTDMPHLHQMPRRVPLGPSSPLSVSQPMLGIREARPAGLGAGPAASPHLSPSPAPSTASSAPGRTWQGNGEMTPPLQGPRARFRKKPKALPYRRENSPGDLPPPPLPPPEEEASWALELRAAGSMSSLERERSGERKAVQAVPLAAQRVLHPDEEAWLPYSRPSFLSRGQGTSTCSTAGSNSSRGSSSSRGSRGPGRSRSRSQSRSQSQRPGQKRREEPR
# T2: human ROBO2 (pCI-hROBO2-transfected HEK293 cells) (human)
# T2 chain: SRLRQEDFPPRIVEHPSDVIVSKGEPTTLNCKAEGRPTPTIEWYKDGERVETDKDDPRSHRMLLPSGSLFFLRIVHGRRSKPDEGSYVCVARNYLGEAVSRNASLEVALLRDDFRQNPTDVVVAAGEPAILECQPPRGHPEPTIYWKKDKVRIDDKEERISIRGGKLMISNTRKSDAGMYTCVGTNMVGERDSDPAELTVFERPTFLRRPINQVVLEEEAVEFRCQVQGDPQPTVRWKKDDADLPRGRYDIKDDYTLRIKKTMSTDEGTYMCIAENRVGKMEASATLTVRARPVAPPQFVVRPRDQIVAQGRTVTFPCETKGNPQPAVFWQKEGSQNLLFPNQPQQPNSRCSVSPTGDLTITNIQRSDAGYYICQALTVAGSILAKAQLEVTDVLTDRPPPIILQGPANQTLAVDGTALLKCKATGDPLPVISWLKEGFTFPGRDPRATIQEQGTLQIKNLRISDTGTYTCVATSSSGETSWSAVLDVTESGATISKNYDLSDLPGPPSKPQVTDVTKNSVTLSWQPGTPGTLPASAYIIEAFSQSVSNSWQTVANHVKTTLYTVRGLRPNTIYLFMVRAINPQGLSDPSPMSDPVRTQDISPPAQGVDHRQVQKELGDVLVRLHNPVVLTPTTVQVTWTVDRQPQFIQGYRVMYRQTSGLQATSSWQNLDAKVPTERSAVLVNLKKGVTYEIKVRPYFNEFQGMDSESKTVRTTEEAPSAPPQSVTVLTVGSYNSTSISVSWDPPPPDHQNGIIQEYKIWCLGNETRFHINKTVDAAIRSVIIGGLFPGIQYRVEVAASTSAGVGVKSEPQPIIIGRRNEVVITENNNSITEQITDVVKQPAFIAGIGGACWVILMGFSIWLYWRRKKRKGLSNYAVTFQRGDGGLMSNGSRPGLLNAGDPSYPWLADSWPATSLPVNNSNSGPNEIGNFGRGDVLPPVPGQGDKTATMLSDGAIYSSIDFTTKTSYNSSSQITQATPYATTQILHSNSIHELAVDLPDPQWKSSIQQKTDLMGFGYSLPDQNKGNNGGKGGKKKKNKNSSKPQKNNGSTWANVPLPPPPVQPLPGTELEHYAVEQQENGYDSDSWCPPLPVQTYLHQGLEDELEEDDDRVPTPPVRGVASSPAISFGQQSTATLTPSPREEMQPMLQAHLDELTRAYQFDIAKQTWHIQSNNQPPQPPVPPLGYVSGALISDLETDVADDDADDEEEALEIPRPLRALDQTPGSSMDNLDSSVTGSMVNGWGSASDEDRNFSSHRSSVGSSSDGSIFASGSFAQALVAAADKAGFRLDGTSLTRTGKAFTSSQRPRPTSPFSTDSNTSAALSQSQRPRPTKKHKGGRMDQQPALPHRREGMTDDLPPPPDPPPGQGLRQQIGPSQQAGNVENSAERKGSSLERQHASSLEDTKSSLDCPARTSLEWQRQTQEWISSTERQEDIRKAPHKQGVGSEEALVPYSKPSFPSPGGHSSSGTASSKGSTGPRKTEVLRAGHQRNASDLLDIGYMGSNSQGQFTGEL
# B1: humanized MAb1 antibody H-1143 (antibody, human IgG2, kappa, V domains shown)
# VH: EVQLVESGGGLVQPGGSLRLSCAASGFTFSTYAMSWVRQAPGKGLEWVATISQGGTYTYYPDSVKGRFTISRDNAKNTLYLQMNSLRAEDTAVYYCARLIYYDYLDYWGQGTLVTVSS
# VL: DIVMTQSPLSLPVTLGEPASISCRSSQSLENENKNLYLNWYLQKPGQSPQLLIYRVSNRFSGVPDRFSGSGSGTDFTLKISRVEAEDVGVYYCLQVTHVPWTFGPGTKVDIKR
# notes: Human IgG2 / kappa constant regions; also called hMAb1-H2-type heavy chain + hMAb1-L2-type light chain
# B2: humanized MAb1 antibody H-2143 (antibody, human IgG2, kappa, V domains shown)
# VH: B1 VH with G44R
# VL: B1 VL
# notes: Human IgG2 / kappa constant regions; also called hMAb1-H4-type heavy chain + hMAb1-L2-type light chain
# B3: humanized MAb1 antibody H-2140 (antibody, human IgG2, kappa, V domains shown)
# VH: B1 VH with G44R
# VL: B1 VL with E32S, K34G, L36T
# notes: Human IgG2 / kappa constant regions; also called hMAb1-H4-type heavy chain + hMAb1-L1-type light chain
# Target: T1, human ROBO3 (pCI-hROBO3-transfected …)
# Assay: flow cytometry (FC500), HEK293 cells transfected with pCI-hROBO3, FITC goat anti-human IgG Fc; control histogram IgG (human IgG)
row,binding result,Binder
1,no binding (tested: 10 µg/mL),B1
2,no binding (tested: 10 µg/mL),B2
3,no binding (tested: 10 µg/mL),B3

# Target: T2, human ROBO2 (pCI-hROBO2-transfected …)
# Assay: flow cytometry (FC500), HEK293 cells transfected with pCI-hROBO2, FITC goat anti-human IgG Fc; control histogram IgG (human IgG)
row,binding result,Binder
1,no binding (tested: 10 µg/mL),B1
2,no binding (tested: 10 µg/mL),B2
3,no binding (tested: 10 µg/mL),B3
